Where two headings read alike, the source gives them in different places.
How the values were obtained:
Test in all cases: other fluorescence titration
[1] = biological target: T1, C-domain fragment of calmodulin (CaMC, residues 76-148) (paramecium, UniProt P07463 77-149)
[2] = biological target: T2, Full-length, wild-type calmodulin (paramecium sequence) (paramecium, UniProt P07463 1-149)
[3] = biological target: T3, N-domain fragment of calmodulin (CaMN, residues 1-75) (paramecium, UniProt P07463 2-76)
[4] = biological target: T1, C-domain fragment of calmodulin (CaMC, …); remark: listed apart in the source
[5] = biological target: T2, Full-length, wild-type calmodulin …; remark: listed apart in the source
[6] = biological target: T3, N-domain fragment of calmodulin (CaMN, …); remark: listed apart in the source

Kd [1]: 11.6 nM
Kd [2]: 3.2 nM
Kd [3]: > 100000 nM
Kd [4]: 386 nM
Kd [5]: 85 nM
Kd [6]: > 100000 nM
B1: NaV1.2 IQ biosensor (rat NaV1.2 residues 1901-1927 flanked by YFP and CFP) (domain or fragment)
chain: KRKQEEVSAIVIQRAYRRYLLKQKVKK

Reference: PMC5503752 (Biophysical chemistry, 2017)
